Measured values: US20210324051A1 (published 2021)

T1: Ravn strain cleaved MARV GP ectodomain (Marburg virus, Ravn strain, UniProt Q1PDC7 19-648)
T1 chain: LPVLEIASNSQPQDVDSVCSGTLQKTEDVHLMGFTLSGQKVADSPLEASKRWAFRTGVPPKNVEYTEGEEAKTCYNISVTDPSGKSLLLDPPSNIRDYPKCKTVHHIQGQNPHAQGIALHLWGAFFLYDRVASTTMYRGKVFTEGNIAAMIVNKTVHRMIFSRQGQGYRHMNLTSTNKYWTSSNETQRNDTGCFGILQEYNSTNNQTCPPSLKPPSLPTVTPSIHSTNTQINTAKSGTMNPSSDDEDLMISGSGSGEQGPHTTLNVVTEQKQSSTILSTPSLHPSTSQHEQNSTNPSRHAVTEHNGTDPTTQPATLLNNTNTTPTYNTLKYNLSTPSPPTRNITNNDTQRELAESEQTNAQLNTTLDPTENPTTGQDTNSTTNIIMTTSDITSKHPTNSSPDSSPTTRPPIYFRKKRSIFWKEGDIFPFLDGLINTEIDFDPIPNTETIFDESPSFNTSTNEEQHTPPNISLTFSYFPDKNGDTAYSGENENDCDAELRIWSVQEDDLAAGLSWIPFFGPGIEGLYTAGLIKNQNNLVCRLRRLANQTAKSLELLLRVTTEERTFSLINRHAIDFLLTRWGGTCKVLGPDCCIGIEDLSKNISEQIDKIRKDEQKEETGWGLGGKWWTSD

T2: EBOV Mayinga strain cleaved GP ectodomain (Ebola virus, Mayinga strain, UniProt Q05320 33-650)
T2 chain: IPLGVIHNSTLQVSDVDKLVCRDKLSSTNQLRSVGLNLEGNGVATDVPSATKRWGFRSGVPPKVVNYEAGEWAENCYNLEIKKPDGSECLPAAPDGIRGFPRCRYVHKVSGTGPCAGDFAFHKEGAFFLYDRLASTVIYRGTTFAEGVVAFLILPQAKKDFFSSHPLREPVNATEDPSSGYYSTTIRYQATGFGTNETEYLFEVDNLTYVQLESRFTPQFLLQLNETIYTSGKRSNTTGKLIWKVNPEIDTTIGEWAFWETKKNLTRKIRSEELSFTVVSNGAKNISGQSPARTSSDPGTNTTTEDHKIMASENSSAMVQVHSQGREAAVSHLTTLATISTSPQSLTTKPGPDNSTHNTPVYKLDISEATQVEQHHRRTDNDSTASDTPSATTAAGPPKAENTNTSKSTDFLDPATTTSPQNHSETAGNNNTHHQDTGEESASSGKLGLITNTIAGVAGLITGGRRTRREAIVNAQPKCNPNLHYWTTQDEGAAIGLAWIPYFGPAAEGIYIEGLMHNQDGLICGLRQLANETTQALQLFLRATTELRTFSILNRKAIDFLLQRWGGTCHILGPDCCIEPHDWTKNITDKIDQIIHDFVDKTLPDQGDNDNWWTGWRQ

T3: Angola strain MARV GP ectodomain containing the mucin-like domain (Marburg virus, Angola strain, UniProt Q1PD50 19-648)
T3 chain: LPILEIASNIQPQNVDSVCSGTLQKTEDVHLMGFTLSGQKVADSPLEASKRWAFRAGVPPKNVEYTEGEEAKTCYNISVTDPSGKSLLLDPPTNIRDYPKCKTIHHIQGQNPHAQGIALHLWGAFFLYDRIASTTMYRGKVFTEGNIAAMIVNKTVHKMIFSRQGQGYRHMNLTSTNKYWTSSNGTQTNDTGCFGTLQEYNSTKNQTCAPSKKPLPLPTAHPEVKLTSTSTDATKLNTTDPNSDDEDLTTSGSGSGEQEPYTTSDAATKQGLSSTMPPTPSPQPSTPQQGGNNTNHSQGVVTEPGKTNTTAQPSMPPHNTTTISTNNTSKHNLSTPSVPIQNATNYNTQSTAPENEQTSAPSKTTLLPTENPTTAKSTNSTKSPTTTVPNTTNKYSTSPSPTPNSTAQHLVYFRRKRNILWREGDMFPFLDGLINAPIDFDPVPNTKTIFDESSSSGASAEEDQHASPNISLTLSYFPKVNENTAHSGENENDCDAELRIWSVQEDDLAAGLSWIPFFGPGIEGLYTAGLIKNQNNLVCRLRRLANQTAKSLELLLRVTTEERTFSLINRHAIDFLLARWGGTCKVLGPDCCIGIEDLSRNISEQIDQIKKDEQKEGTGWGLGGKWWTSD

T4: EBOV Mayinga strain GP ectodomain containing the glycan cap and mucin-like domain (Ebola virus, Mayinga strain, UniProt Q05320 33-650)
T4 chain: T2 chain

B1: MR201 (antibody, V domains shown)
VH: QLQLQESGPGLVKPSETLFLSCAVSGGSIAGSTHYWGWIRQPPGKGLEWIGSISESGSTYHNPSLKSRVTISVDTSKNYFSLNLSSVTAADTAVYYCARIVGQSGTFIYYYYAMDVWGTGTLVTVSS
VL: DIQLTQSPSFLSASVGDRVTITCRASQGISSYLAWYQQKPGKAPKLLIYAASTLQRGVPSRFSGSGSGTEFTLTISSLQPEDSATYYCQQLNSYLALIFGGGT
B2: MR78 human monoclonal antibody (antibody, V domains shown)
VH: QLQLQESGPGLVKPSETLSLTCTVSGGSISSSSYYWGWIRQPPGKGLEWIGSVYYSGGASYNPSLKSRATISVDTSKNQFSLNLDSVSAADTAIYYCASIYGSGTFYYYFYMDVWGKGSTVTVSS
VL: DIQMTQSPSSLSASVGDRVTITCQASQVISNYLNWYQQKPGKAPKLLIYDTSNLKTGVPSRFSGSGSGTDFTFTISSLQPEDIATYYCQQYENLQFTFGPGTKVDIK

What was measured:
Test in all cases: ELISA
[1] = molecular target: T1, Ravn strain cleaved MARV GP ectodomain
[2] = molecular target: T2, EBOV Mayinga strain cleaved GP …
[3] = molecular target: Angola strain MARV GP ectodomain lacking residues 257-425 of the mucin-like domain (Marburg virus, Angola strain, UniProt Q1PD50 19-648)
[4] = molecular target: T3, Angola strain MARV GP ectodomain …
[5] = molecular target: T4, EBOV Mayinga strain GP ectodomain …
[6] = molecular target: EBOV Mayinga strain GP ectodomain lacking residues 314-462 of the mucin-like domain (Ebola virus, Mayinga strain, UniProt Q05320 33-650)

Binder | EC50 [1] | EC50 [2] | EC50 [3] | EC50 [4] | EC50 [5] | EC50 [6]
B1 | 0.5 mg/L | > 1000 mg/L | 1.9 mg/L | 1.5 mg/L | > 1000 mg/L | > 1000 mg/L
B2 | 1.1 mg/L | 107 mg/L | 2.3 mg/L | 1.4 mg/L | > 1000 mg/L | > 1000 mg/L
